The values that follow are results of earlier work, collected in PMC4792251.

Like-named read-outs stand apart in the source and are kept apart here.

Data set [1] has as its target Mcl-1 (Homo sapiens) (UniProt Q07820).
For data set [2], the target named is BHRF1 (Epstein-Barr virus) (UniProt P03182).
The target in data set [3] is Mcl-1 (Homo sapiens) (UniProt Q07820). This is another data set of the same source.

Chain of Bid BH3 peptide (P55957 80-99): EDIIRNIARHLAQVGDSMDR
Chain of UniProt Q07820 (Q07820 whole entry): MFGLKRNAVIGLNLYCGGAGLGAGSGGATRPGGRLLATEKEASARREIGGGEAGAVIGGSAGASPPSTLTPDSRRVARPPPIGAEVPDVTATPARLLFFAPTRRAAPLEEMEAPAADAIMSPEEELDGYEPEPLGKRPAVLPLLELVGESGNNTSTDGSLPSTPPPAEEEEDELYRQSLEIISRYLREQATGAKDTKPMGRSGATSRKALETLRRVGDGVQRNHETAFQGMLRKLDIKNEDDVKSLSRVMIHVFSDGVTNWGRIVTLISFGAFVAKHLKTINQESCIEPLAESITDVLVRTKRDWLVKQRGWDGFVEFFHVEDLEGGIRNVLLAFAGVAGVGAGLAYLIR
Chain of UniProt P03182 (P03182 whole entry): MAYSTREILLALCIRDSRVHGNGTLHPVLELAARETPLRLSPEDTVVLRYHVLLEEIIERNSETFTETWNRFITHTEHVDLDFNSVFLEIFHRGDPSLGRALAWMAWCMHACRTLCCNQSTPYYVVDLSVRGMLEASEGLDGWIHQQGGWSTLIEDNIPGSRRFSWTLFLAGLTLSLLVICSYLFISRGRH
Chain of Noxa B BH3 peptide (Q9JM54 68-87): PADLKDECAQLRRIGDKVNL

As a reminder, the Kd is the equilibrium constant for the complex coming apart. Consider Bid BH3 peptide, for which the dissociation constant (Kd) in data set [1] is under 10 nM; in data set [2], 99 nM.
As for Noxa B BH3 peptide, the Kd in data set [3] was 28 nM.
